In the supplement of paper PMC10724198:
± gives the standard deviation of the averaged measurements.

System: Saccharomyces cerevisiae
Assay: protein stability index of tFT-peptide fusion (C-terminal peptide) (PSI (0-1 scale)); higher = more stable (slower turnover)
Conditions: genetic background: wild type; temperature: 30 C
Description: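 Multiplexed protein stability (MPS) profiling in S. cerevisiae. Random 12-aa peptides (tFT-X12 library) are fused to the C-terminus of a sfGFP-mCherry tandem fluorescent timer, after mCherry and a GGGS linker. Cells are FACS-sorted into 8 mCherry/sfGFP bins and deep-sequenced. The protein stability index (PSI) is the read-weighted bin average, scaled from 0 (unstable) to 1 (stable). Only peptides with >10 reads are reported; cells were grown at 30 °C in SC-His with glucose.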
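Also: PSI is a weighted mean of sequencing reads over stability bins, variants kept only with over 10 reads, mCherry proximal and sfGFP distal, peptide attached via GGGS linker.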

Sequence | protein stability index
AACGELLKYSLS | 0.576 ± 0.011
AADNTGRNKGPQ | 0.685 ± 0.0095
AAEPGGGTALRG | 0.637 ± 0.029
AAGGPGGPELWG | 0.749 ± 0.14
AAGLHFYIFRGI | 0.669 ± 0.025
AAGRRGWGRGRG | 0.788 ± 0.15
AAGWRPEGSGAF | 0.725 ± 0.033
AALLSSPPLSPP | 0.662 ± 0.062
AAPSRASDLARP | 0.661 ± 0.087
AARCSPSQEDSF | 0.697 ± 0.12
AARGILLASRRD | 0.739 ± 0.092
AASGCGRPGCSA | 0.663 ± 0.059
AAVGELLFTSLV | 0.699 ± 0.022
AAVPPLSQSPDS | 0.674 ± 0.03
ACCIFAFHRSLS | 0.487 ± 0.032
ACFVVDHGPLHL | 0.695 ± 0.031
ACPLPPLPTPLP | 0.736 ± 0.04
ACPQPSPSPSQY | 0.672 ± 0.048
ACRREMISVLYT | 0.624 ± 0.0075
ACTPHLPLPAPQ | 0.706 ± 0.016
ACWVAKTGGSPV | 0.654 ± 0.012
ADAFDRGRISVV | 0.792 ± 0.11
ADDTFSERIHSK | 0.7 ± 0.093
ADPNDSPPPASP | 0.617 ± 0.026
ADRGLVSLAIVG | 0.582 ± 0.015

Sequence | protein stability index
ADRTLLLKQWYG | 0.682 ± 0.037
AEAVQQGVTIGG | 0.68 ± 0.014
AEFSGVVIGRWW | 0.718 ± 0.054
AEGPWMEDGDMG | 0.7024 ± 0.0028
AELSPGLSVLLL | 0.705 ± 0.013
AERGRMLSEGKW | 0.701 ± 0.053
AFCCRSPPSSHP | 0.655 ± 0.096
AFCPLLLRGTAP | 0.697 ± 0.045
AFLDISIPSSSL | 0.6857 ± 0.0063
AFQLGMILSLVA | 0.507 ± 0.013
AFRKRTFKQESC | 0.642 ± 0.0098
AFWYACMSLHRS | 0.728 ± 0.07
AFYERLQEWIRA | 0.613 ± 0.014
AGAGGGSLGPAG | 0.651 ± 0.1
AGAGGRAMSDTS | 0.693 ± 0.0087
AGAGRGVVLGWW | 0.684 ± 0.017
AGAGVQAYGRGR | 0.681 ± 0.015
AGANPRVGTFWV | 0.664 ± 0.032
AGARGVAGWLPR | 0.684 ± 0.041
AGARVGAPASTR | 0.664 ± 0.028
AGAWVRVVVGWG | 0.737 ± 0.012
AGCLSGPVDILL | 0.703 ± 0.046
AGEDRGSRWVCI | 0.699 ± 0.032
AGFTATTPIRGV | 0.715 ± 0.022
AGGAGGCRGWSI | 0.705 ± 0.018

Sequence | protein stability index
AGGGCALGDGWS | 0.649 ± 0.021
AGGGEASRGQAK | 0.596 ± 0.0062
AGGGKGGGGGEK | 0.649 ± 0.029
AGGGRGGGSLRV | 0.669 ± 0.034
AGGIAVYFGEEE | 0.746 ± 0.055
AGGLGGSILCLV | 0.556 ± 0.025
AGGSVCRESLEV | 0.694 ± 0.064
AGGTMVVVVRSC | 0.51175 ± 3.2e-05
AGGVCHVSSLLA | 0.64 ± 0.021
AGGVESGGRSGV | 0.679 ± 0.02
AGHGGWREAGGG | 0.685 ± 0.0076
AGLCVSIGVGRG | 0.652 ± 0.015
AGLGHVPGEHSV | 0.613 ± 0.033
AGLPGSSFWWVF | 0.682 ± 0.058
AGLVADGYWLRR | 0.6892 ± 0.005
AGLWWGGCAAGA | 0.804 ± 0.037
AGRAPRGSWECS | 0.719 ± 0.18
AGRGEIVINGKR | 0.615 ± 0.07
AGRLEGGRRWRV | 0.69 ± 0.031
AGSDLGLIEGIV | 0.685 ± 0.024
AGSHPSRLGIFS | 0.733 ± 0.033
AGSSSLRGRLRG | 0.69 ± 0.068
AGSTGGGRGRDW | 0.76 ± 0.14
AGTGAHGLREPR | 0.706 ± 0.15
AGTHRDLFQRWS | 0.711 ± 0.046

Sequence | protein stability index
AGTVGRGVSGGR | 0.5746 ± 0.0044
AGVCVAVGGGGF | 0.676 ± 0.03
AGVDKWLMCEVS | 0.695 ± 0.034
AGVGPTHVRPPR | 0.676 ± 0.0079
AGVRGWGIAVTP | 0.64 ± 0.046
AHGAGCGGRRVA | 0.726 ± 0.023
AHLPHSSFSWRP | 0.707 ± 0.05
AHLPSPRPRPPP | 0.764 ± 0.013
AHYGSNNNGLVF | 0.695 ± 0.042
AIKGIYPRCYFI | 0.697 ± 0.0073
AIKHMVSHSPGN | 0.683 ± 0.08
AILFSASLTLLL | 0.598 ± 0.012
AILPFGLLPTHR | 0.745 ± 0.017
AILTLVQEVRKY | 0.6203 ± 0.00088
AIPLPVLSFPPL | 0.737 ± 0.024
AIPLYAPSQPCE | 0.696 ± 0.027
AIRGGPGGDKEP | 0.682 ± 0.024
AISCPFIRFSSL | 0.614 ± 0.0091
AITSPLGFGVLG | 0.717 ± 0.015
AKEENQRKYTRR | 0.637 ± 0.13
AKGRRRRGRWWG | 0.682 ± 0.032
AKLVESISEVAT | 0.6766 ± 0.0052
AKRLYLLTNRND | 0.634 ± 0.025
AKSKVAGNVGGD | 0.669 ± 0.017
ALCEVLSKSFEF | 0.6617 ± 0.0025

Sequence | protein stability index
ALCSGCFAFLGA | 0.676 ± 0.11
ALEFNGLVAGRL | 0.727 ± 0.081
ALGVRVSVLGVL | 0.642 ± 0.0075
ALKVMYMHTGKG | 0.62 ± 0.041
ALLLTLTCGLFF | 0.521 ± 0.019
ALMITIMNNREF | 0.649 ± 0.021
ALPLPLLACSPL | 0.6268 ± 0.0034
ALRLLRFPSPPP | 0.628 ± 0.049
ALRVSGAYREHS | 0.735 ± 0.032
ALSPAFSPLFLP | 0.668 ± 0.036
ALSSVPPCSLPP | 0.637 ± 0.016
ALSVGGGSGSWY | 0.736 ± 0.014
ALVQWRVGGCGG | 0.709 ± 0.085
ALWARSGRVILI | 0.674 ± 0.05
AMGSGLVWAGPA | 0.684 ± 0.03
ANQGRRPWRGMC | 0.585 ± 0.14
ANRSPLFCVTFG | 0.695 ± 0.027
APACRLTLVSDF | 0.752 ± 0.014
APARPPVTLSTN | 0.671 ± 0.013
APARTTPRLPFA | 0.724 ± 0.069
APDPPGLRGLSP | 0.719 ± 0.015
APDRLPLSRCPA | 0.699 ± 0.02
APFMSLSNTIAR | 0.677 ± 0.026
APFPMVSSLSFL | 0.761 ± 0.037
APGLPSFRSLFA | 0.676 ± 0.016

Sequence | protein stability index
APHAPPPSFPAP | 0.729 ± 0.0097
APHPPPPDPPLP | 0.697 ± 0.04
APKVYVAAYTPL | 0.676 ± 0.025
APKYPIQEWIKL | 0.594 ± 0.031
APLFASSASIPL | 0.716 ± 0.11
APLLQCPILARP | 0.588 ± 0.0067
APLSLPPPPSPH | 0.696 ± 0.033
APPALPPLSPFP | 0.705 ± 0.091
APPAPPTYLAPF | 0.729 ± 0.069
APPPLLPLRPFR | 0.606 ± 0.1
APPPLPPARSPP | 0.6541 ± 0.0056
APPPLPPTPPPL | 0.7017 ± 0.0031
APPPNSLPPPPP | 0.72 ± 0.022
APPPPLPAPQLR | 0.6186 ± 0.0011
APPPPSPPSLAS | 0.736 ± 0.074
APPPRPPPPPQL | 0.67 ± 0.031
APPPSPPALVLP | 0.641 ± 0.026
APRCCPHLLRFR | 0.655 ± 0.055
APSPRPSRPPPL | 0.671 ± 0.034
APSQPPTPPPIS | 0.665 ± 0.03
APSTFRPPTPPS | 0.711 ± 0.03
APVLPKPSPFSF | 0.629 ± 0.01
APWSQLRSPPAL | 0.769 ± 0.037
AQIGTKINTRKT | 0.599 ± 0.04
AQPAPAPALADV | 0.667 ± 0.039

Sequence | protein stability index
AQPPPPPAPTPS | 0.674 ± 0.093
AQSPRFPYRNYH | 0.693 ± 0.049
AQTASQSPYRVG | 0.731 ± 0.017
ARADILLLTWGV | 0.604 ± 0.027
ARAGLVGDARGM | 0.641 ± 0.026
ARAPPSSYPPSG | 0.66 ± 0.012
AREGSRGVDVGV | 0.629 ± 0.01
ARGPCRGSGSFG | 0.631 ± 0.044
ARKRRRRGHDTE | 0.725 ± 0.19
ARLATLSPEMAN | 0.729 ± 0.082
ARLPSSRLDLSP | 0.686 ± 0.056
ARPAPPDNVHRN | 0.626 ± 0.069
ARPGSVIAQLRV | 0.598 ± 0.031
ARPPPPPRSSPL | 0.747 ± 0.072
ARRGGRKRPGAV | 0.631 ± 0.056
ARSQGEKGGDVV | 0.692 ± 0.0072
ARSVHGSLSLVM | 0.633 ± 0.042
ARTADPAATPST | 0.687 ± 0.02
ARTIVLGAGSGT | 0.654 ± 0.084
ARVDGGGVRTDV | 0.7511 ± 0.0069
ASALIFTPPSFL | 0.686 ± 0.12
ASFHPIAPVSTP | 0.6862 ± 0.0011
ASFSLSPFLPFS | 0.6854 ± 0.0068
ASFVPPYLPSSM | 0.75 ± 0.17
ASIPAPRLTPRA | 0.681 ± 0.048

Sequence | protein stability index
ASLAACSLTNSV | 0.697 ± 0.053
ASLLSCSLLPPV | 0.765 ± 0.08
ASNVHSSTARFI | 0.687 ± 0.082
ASPLTIHSPNLL | 0.725 ± 0.064
ASPSKVSGLNID | 0.785 ± 0.097
ASRCEVGVRWGG | 0.683 ± 0.025
ASRKRKVAQESR | 0.688 ± 0.03
ASRWVLLGGGGV | 0.693 ± 0.03
ASSDLQDSPIGD | 0.665 ± 0.019
ASSHDNPEEVST | 0.6298 ± 0.002
ASTMAVLDYAPA | 0.621 ± 0.0083
ASTTNLGNPFKA | 0.654 ± 0.038
ASVLFILAIPDL | 0.565 ± 0.039
ASVRPCSCSGRQ | 0.715 ± 0.069
ATCSILPSRLSI | 0.6124 ± 0.0011
ATHPPPPPLPPI | 0.648 ± 0.068
ATLIGIPPSLSA | 0.6643 ± 0.00067
ATQPPPPPLPPI | 0.636 ± 0.052
ATQTGFGGGGPM | 0.689 ± 0.013
ATSRGFLQNLMA | 0.55737 ± 0.00018
ATVGVGSLLVKY | 0.747 ± 0.05
